B1: XPC4: engineered meganuclease (SEQ ID NO: 2) designed to cleave xeroderma pigmentosum group C gene (XPC) (protein)
chain: MANTKYNEEFLLYLAGFVDGDGSIIAQIKPNQSHKFKHALQLTFKVTQKTQRRWFLDKLVDEIGVGYVQDSGSVSNYILSEIKPLHNFLTQLQPFLELKQKQANLALKIIEQLPSAKESPDKFLEVCTWVDQVAALNDSKTRKTTSETVRAVLDSLSEKKKSSPAAGGSDKYNQALSKYNQALSKYNQALSGGGGSNKKFLLYLAGFVDSDGSIIAQIKPNQSHKFKHQLSLAFQVTQKTQRRWFLDKLVDRIGVGYVRDRGSVSDYILSKIKPLHNFLTQLQPFLKLKQKQANLVLKIIEQLPSAKESPDKFLEVCTWVDQVAALNDSKTRKTTSETVRAVLDSLSEKKKSSP
B2: ADCY9: engineered meganuclease (SEQ ID NO: 3) designed to cleave adenylate cyclase 9 gene (protein)
chain: MANTKYNEEFLLYLAGFVDGDGSIIAQIKPNQSYKFKHQLSLTFRVTQKTQRRWFLDKLVDEIGVGYVRDSGSVSNYDLSEIKPLHNFLTQLQPFLELKQKQANLVLKIIEQLPSAKESPDKFLEVCTWVDQVAALNDSKTRKTTSETVRAVLDSLSEKKKSSPAAGGSDKYNQALSKYNQALSKYNQALSGGGGSNKKFLLYLAGFVDSDGSIIAQIKPDQSYKFKHQLGLTFQVTQKTQRRWFLDKLVDRIGVGYVRDRGSVSDYILSEIKPLHNFLTQLQPFLKLKQKQANLVLKIIEQLPSAKESPDKFLEVCTWVDQVAALNDSKTRKTTSETVRAVLDSLSEKKKSSP

How the values were obtained:
[1] = system: XPC4.1 DNA target; assay: In vitro single turn over cleavage assay with XPC4.1; assay type: biochemical
Procedure: FIG. 8: In vitro cleavage of unmethylated or methylated XPC4.1 by XPC4. A constant amount of XPC4.1 duplex (50 nM) was incubated with an excess of XPC4 (1.5 μM, final concentration) in the reaction buffer (10 mM Tris-HCl, 150 mM NaCl, pH8) at 37° C. Cleavage reaction was triggered by the addition of MgCl2 and then stopped after different time lengths by the addition of the stop buffer. This was followed by one hour of incubation at 37° C. to digest XPC4 and release free DNA molecules. Cleaved and uncleaved DNA products were separated by PAGE using a TGX Any kD precast gel (Bio-Rad), stained with SYBR Green and then quantified using Quantity One software (Bio-Rad). […]
To investigate the influence of C1234 methylation on the nuclease activity of I-Cre I, in vitro single turn over cleavage assays were performed with either unmethylated or methylated C1234 duplexes (unmethylated C1234 composed of SEQ ID NO: 31+SEQ ID NO: 32, C1234_Me full composed of SEQ ID NO: 35+SEQ ID NO: 38, C1234_Me-6a/-5b composed of SEQ ID NO: 33+SEQ ID NO: 36, C1234_Me-3a/-2b composed of SEQ ID NO: 34+SEQ ID NO: 37, C1234_Me-3a composed of SEQ ID NO: 34+SEQ ID NO: 32, C1234_Me-2b composed of SEQ ID NO: 31+SEQ ID NO: 37, respectively). […] Cleaved and uncleaved DNA products were separated by PAGE using a TGX Any kD precast gel (Bio-Rad), stained with SYBR Green and then quantified using Quantity One software (Bio-Rad). […]

[2] = system: ADCY9.1 DNA target; assay: In vitro single turn over cleavage assay with ADCY9.1; assay type: biochemical
Procedure: FIG. 13: In vitro cleavage of unmethylated or methylated ADCY9.1 by ADCY9. A constant amount of ADCY9.1 duplex (50 nM) was incubated with an excess of ADCY9 (1.5 μM, final concentration) in the reaction buffer (10 mM Tris-HCl, 150 mM NaCl, pH8) at 37° C. Cleavage reaction was triggered by the addition of MgCl2 and then stopped after different time lengths by the addition of the stop buffer. This was followed by one hour of incubation at 37° C. to digest ADCY9 and release free DNA molecules. Cleaved and uncleaved DNA products were separated by PAGE using a TGX Any kD precast gel (Bio-Rad), stained with SYBR Green and then quantified using Quantity One software (Bio-Rad). Disappearance of substrate (uncleaved DNA) is plotted as a function of time.
To investigate the influence of C1234 methylation on the nuclease activity of I-Cre I, in vitro single turn over cleavage assays were performed with either unmethylated or methylated C1234 duplexes (unmethylated C1234 composed of SEQ ID NO: 31+SEQ ID NO: 32, C1234_Me full composed of SEQ ID NO: 35+SEQ ID NO: 38, C1234_Me-6a/-5b composed of SEQ ID NO: 33+SEQ ID NO: 36, C1234_Me-3a/-2b composed of SEQ ID NO: 34+SEQ ID NO: 37, C1234_Me-3a composed of SEQ ID NO: 34+SEQ ID NO: 32, C1234_Me-2b composed of SEQ ID NO: 31+SEQ ID NO: 37, respectively). A constant amount of C1234 duplex (50 nM) was incubated with an excess of I-Cre I (1.5 μM, final concentration) in the reaction buffer (10 mM Tris-HCl, 150 mM NaCl, pH8) at 37° C. Cleavage reaction was triggered by the addition of MgCl2 and then stopped after different time lengths by the addition of the stop buffer (45% glycerol, 95 mM EDTA, 1.5% (w/v) SDS, 1.5 mg/mL proteinase K and 0.048% (w/v) bromophenol blue, final concentrations). This was followed by one hour incubation at 37° C. to digest I-Cre I and release free DNA molecules. Cleaved and uncleaved DNA products were separated by PAGE using a TGX Any kD precast gel (Bio-Rad), stained with SYBR Green and then quantified using Quantity One software (Bio-Rad). […]

Molecule | kcat ([1]; XPC4.1_Me −11a/−10b & +10a/+11b (fully methylated)) [s⁻¹] | kcat ([1]; unmethylated XPC4.1) [s⁻¹] | kcat ([2]; ADCY9.1_Me −3a/−2b (fully methylated)) [s⁻¹] | substrate disappearance ([2]; fully methylated ADCY9.1, even after 5 hours) | kcat ([2]; unmethylated ADCY9.1) [s⁻¹]
B1 | 0.0017 ± 0.00017 | 0.0013 ± 0.00017 | – | – | –
B2 | – | – | <1.7e-06 | no substrate disappearance was observed | 0.00095 ± 1.7e-05

Source: patent publication US20130196320A1, “METHOD FOR IMPROVING CLEAVAGE OF DNA BY ENDONUCLEASE SENSITIVE TO METHYLATION” (CELLECTIS, priority 2010, published 2013)
